Data set [1] can be described thus: PTM of SG-11 versus SG-11V5 after storage, LC-MS/MS (Example 10). The data set is classed as physicochemical. As for the experimental part: For this analysis, PTMs of wildtype SG-11 (SEQ ID NO:7) and SG-11V5 (SEQ ID NO:19) were compared. In the first analysis (results provided in Table 10 below), the proteins were stored at a concentration of 1 mg/ml in Buffer 1 (50 mM NaPO4, pH 8, 150 mM NaCl, 10% glycerol) and stored for 2 weeks at either 4° C. or 40° C. The proteins were then treated with DTT and Iodoacetamide (IAA), followed by trypsin digestion. The digested samples were then analyzed by Waters ACQUITY UPLC couples to Xevo G2-XS QTOF mass spectrometer using a Protein BEH C18 column.
In a second analysis, the SG-11 (SEQ ID NO:7) and SG-11V5 (SEQ ID NO:19) proteins were each stored at 40° C. in a variety of buffers. The storage buffer used in this experiment was 100 mM NaPO4, pH7, with 10% sorbitol (+Sor) or without 10% sorbitol (−Sor) and with 10% glycerol (+Gly) or without 10% glycerol (−Gly) as indicated in Table 11. […] There were also differences in levels of N137 deamidation for the two proteins with the presence of at least glycerol and also the presence of both sorbitol and glycerol resulting in large decreases in N137 deamidation.

In data set [2] the test system is C57BL/6 mice treated with DSS. The experiment in a line: concurrent (prophylactic) DSS model of inflammatory bowel disease (Examples 4, 13A). The data set is classed as in vivo. Conditions: for 4KDa-FITC signal in serum: Example 13, first model, SG-11 (SEQ ID NO:9) 50 nmoles/kg i.p. b.i.d. (FIG. 18A, p=0.04), SG-11V5 (printed FIG. 18B, p=0.21). The method, then: On day six, mice were fasted for four hours and then orally gavaged with 600 mg/kg 4KDa dextran labeled with fluorescein isothiocyanate (FITC) [4KDa-FITC]. One hour after the 4KDa-FITC gavage, mice were euthanized, blood was collected, and FITC signal was measured in serum. […] The magnitude of 4KDa-FITC dextran translocation observed for SG-11 was similar to the positive control of Gly2-GLP2. Results are shown in FIG. 3, and are presented as mean±SEM. The graph in FIG. 3 represents data pooled from 3 independent experiments, each using 10 mice (n=30).
SG-11 was also assessed for its effects on the levels of lipopolysaccharide (LPS) binding protein (LBP) in the blood of the DSS animal with and without SG-11 administration. LBP, which has been linked to clinical disease activity in subjects with inflammatory bowel disease, was also measured by […] in the serum of mice tested in the DSS model described in this Example. […] Results are shown in FIG. 4, and are presented as mean±SEM. The graph in FIG. 4 represents data pooled from 3 independent experiments (n=30; each experiment using 10 mice).
Body weight was measured daily from mice included in the DSS model described in this Example. Percent change from starting weight on day 0 was determined for each mouse. […] Weight loss in mice treated with SG-11 at day 6 was similar to weight loss observed with Gly2-GLP2. The graph in FIG. 5 represents data pooled from two independent experiments (n=20; each experiment using 10 mice).
Gross pathology observations were made in mice included in the concurrent DSS model performed in this Example. […] No differences in clinical scores were observed between mice given DSS and treated with either Gly2-GLP2 or SG-11. The scoring system used was: (0)=no gross pathology, (1)=streaks of blood visible in feces, (2)=completely bloody fecal pellets, (3) bloody fecal material visible in cecum, (4) bloody fecal material in cecum and loose stool, (5)=rectal bleeding. The graph in FIG. 6 represents data pooled from 3 independent experiments (n=30; each experiment using 10 mice).
In addition, histopathology analysis was performed on proximal and distal colon tissues from the DSS model animals. […] LMA Loss of mucosal architecture, Edema=Edema, INF=Inflammation. TMI=Transmural inflammation, MH=Mucosal hyperplasia, DYS=Dysplasia. Graphs represent data pooled from two independent experiments, and are plotted as mean±SEM. Statistical analysis was performed by a one-way ANOVA compared to DSS+vehicle followed by a Fisher's LSD test for multiple comparisons.
Colon length was measured in mice included in the DSS model described above. […] The graphs in FIGS. 8A and 8B represent data pooled from 3 independent experiments (n=30). Data are graphed as mean SEM and are pooled from three independent experiments (n=30; each experiment using 10 mice). Statistical analysis was performed by a one-way ANOVA followed by a Fisher's LSD multiple comparisons test.
Briefly, in the first DSS mouse model (Example 13A), mice were treated on day zero with test compound intraperitoneally (i.p.) and 6 hours later DSS treatment was initiated. Doses administered included 50 nmoles/kg for SG-11 (SEQ ID NO:9) ([…]), and Gly2-GLP2 (0.2 mg/kg), and a dose response for SG-11V5 (SEQ ID NO:19) including 16 nmoles/kg ([…]), 50 nmoles/kg ([…]) and 158 nmoles/kg (4.0 mg/kg). […] Therapeutic protein treatments were administered twice a day for the duration of the DSS exposure.
At the end of each DSS model study, mice were fasted for 4 hours and then orally gavaged with 600 mg/kg 4KDa dextran labeled with FITC [4KDa-FITC]. One hour after the 4KDa-FITC gavage, mice were euthanized, blood was collected, and FITC signal was measured in serum. […] Data in both graphs are plotted as mean±SEM and each figure represent data from an individual experiment (n=10 per group).
Upon completion of the OSS models above. […]

Setting [3] is: 1 mg/ml in Buffer 1 (50 mM NaPO4, pH 8, 150 mM NaCl, 10% glycerol), 2 weeks at 4° C.
Setting [4] is: 1 mg/ml in Buffer 1, 2 weeks at 4° C.
Setting [5] is: 1 mg/ml in Buffer 1, 2 weeks at 40° C.
[6] abbreviates: 40° C., 100 mM NaPO4, pH7, + Sor − Gly.
The mark [7] stands for this setting: 40° C., 100 mM NaPO4, pH7, + Sor − Sly (so in the source).
Setting [8] is: 40° C., 100 mM NaPO4, pH7, − Sor − Gly (first column).
Setting [9] is: 40° C., 100 mM NaPO4, pH7, − Sor − Gly (third column as printed).
[10] abbreviates: Example 4, 50 nmoles/kg i.p. b.i.d.
The mark [11] stands for this setting: Example 4, 50 nmoles/kg i.p. b.i.d., vs DSS + vehicle.

B1: SG-11V5: variant of SEQ ID NO:7 with N53S, N83S, C147V, C151S (protein)
chain: MLEGEESVVYVGKKGVIASLDVETLDQSYYDETELKSYVDAEVEDYTAEHGKSAVKVESLKVEDGVAKLKMKYKTPEDYTAFSGIELYQGKVVASLAAGYVYDGEFARVEEGKVVGAATKQDIYSEDDLKVAIIRANTDVKVDGEIVYVSSQNVKLTGKDSVSIRDGYYLETGSVTASVDVTGQESVGTEQLSGTEQMEMTGEPVNADDTEQTEAAAGDGSFETDVYTFIVYK
modifications: Artificial variant of SG-11 (N53S, N83S, C147V, C151S)
On to B1, for which the “Oxidation of M1” value in data set [1] (setting [3]) was determined as 2.5%; in data set [1] (setting [5]) it was 4.7%; in data set [1] (setting [6]), 3.3%; in data set [1] (setting [7]), 5.9%; in data set [1] (setting [8]), 2.7%; in data set [1] (setting [9]), 5.6%. For the same molecule, the “Deamidation of N137” value was determined as 0.1% in data set [1] (setting [4]); 0.3% in data set [1] (setting [5]); 3.3% in data set [1] (setting [6]); 0.1% in data set [1] (setting [7]); 1.5% in data set [1] (setting [8]); 0.4% in data set [1] (setting [9]). The “4KDa-FITC signal in serum” value in data set [2] is “reduced the 4KDa-FITC signal, although the difference did not reach statistical significance”. For the same molecule, the “gross pathology (clinical score 0-5)” value in data set [2] (Example 13, 160 nmoles/kg dose, p<0.002) is recorded as “significant improvement”. In data set [2] (Example 13A (FIG. 22A)), the colon length entry was “significant increase in the colon length”. For the same molecule, the body weight entry in data set [2] (Example 13A, 158 nmoles/kg, day 6) is reported as “significant improvement in body weight”. Further, in data set [2] (Example 13A, 158 nmoles/kg, p=0.003), the “serum LBP” value is recorded as “significant reduction in LBP production”.

B2: SG-11: Roseburia hominis protein comprising SEQ ID NO:3; tested as SEQ ID NO:5, SEQ ID NO:7 or FLAG-tagged SEQ ID NO:9 (protein, listed as Rosburia hominis)
chain: LEGEESVVYVGKKGVIASLDVETLDQSYYDETELKSYVDAEVEDYTAEHGKNAVKVESLKVEDGVAKLKMKYKTPEDYTAFNGIELYQGKVVASLAAGYVYDGEFARVEEGKVVGAATKQDIYSEDDLKVAIIRANTDVKVDGEICYVSCQNVKLTGKDSVSIRDGYYLETGSVTASVDVTGQESVGTEQLSGTEQMEMTGEPVNADDTEQTEAAAGDGSFETDVYTFIVYK
On to B2, for which the “Oxidation of M1” value in data set [1] (setting [3]) was found to be 8.9%; in data set [1] (setting [5]), 12.5%; in data set [1] (setting [6]), 12.1%; in data set [1] (setting [7]) it was 27.8%; in data set [1] (setting [8]) it was 20%; in data set [1] (setting [9]), 38.6%. In addition, the “Deamidation of N83” value in data set [1] (setting [4]) is 19.4%; in data set [1] (setting [5]), 98.1%; in data set [1] (setting [6]), 93.9%; in data set [1] (setting [7]), 87.4%; in data set [1] (setting [8]) it was 98.1%; in data set [1] (setting [9]), 96.2%. In addition, the “Deamidation of N137” value in data set [1] (setting [4]) stood at 1.0%; in data set [1] (setting [5]), 0.9%; in data set [1] (setting [6]), 2.6%; in data set [1] (setting [7]), 2.5%; in data set [1] (setting [8]), 0.9%; in data set [1] (setting [9]) it was 3.0%. Moreover, the values for the colon length result in data set [2] (setting [10]) and in data set [2] (Example 13A (FIG. 22A)) were “prevented colon shortening elicited by DSS” and “significant increase in the colon length”, respectively. Further, the “colon weight to length ratio” value in data set [2] (setting [10]) is given as “significant improvement in colon weight to length ratios”. Besides, in data set [2] (setting [10]), the “histopathology: edema score of colon” value is “reduced edema to a similar level as Gly2-GLPs, though the difference did not reach statistical significance”. Moreover, the “4KDa-FITC dextran translocation across the epithelial barrier (serum)” value in data set [2] (Example 4, 50 nmoles/kg i.p. b.i.d., 2.5% DSS 6 days, vs DSS + vehicle) is “significant reduction in 4KDa-FITC dextran”. Moreover, the body weight result in data set [2] (setting [11]) is “significantly improved body weight”. In data set [2] (setting [11]), the “gross pathology (clinical score 0-5)” value is “significantly improved gross pathology”. Moreover, the “serum LPS binding protein (LBP) concentration” value in data set [2] (setting [11]) is reported as “significant reduction in LBP”. Besides, the “4KDa-FITC signal in serum” value in data set [2] is recorded as “significantly reduced the 4KDa-FITC signal”.
